Experimental findings from article PMC5029660, “The DEK oncogene activates VEGF expression and promotes tumor angiogenesis and growth in HIF-1α-dependent and -independent manners” are described below.

The target of data set [1] is T1, His-DEK (UniProt P35659 1-375).
T1 sequence: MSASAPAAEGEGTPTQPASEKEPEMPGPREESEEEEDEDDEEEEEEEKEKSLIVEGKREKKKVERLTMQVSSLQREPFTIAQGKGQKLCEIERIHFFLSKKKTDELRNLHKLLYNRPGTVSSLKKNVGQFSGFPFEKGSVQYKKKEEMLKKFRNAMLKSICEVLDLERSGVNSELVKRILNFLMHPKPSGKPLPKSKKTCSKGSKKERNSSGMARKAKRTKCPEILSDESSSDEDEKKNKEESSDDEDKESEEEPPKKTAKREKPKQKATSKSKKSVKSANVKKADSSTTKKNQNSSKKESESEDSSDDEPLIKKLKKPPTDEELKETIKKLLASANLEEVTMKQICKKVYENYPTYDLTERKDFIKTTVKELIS
Kind of data set: EMSA; abolished by 100-fold excess unlabeled DRE1; LightShift Chemiluminescent EMSA Kit (Pierce), per manufacturer; buffer, salt, pH and temperature not stated. To be noted: protein: recombinant; tags: His; label: biotin; blunt.

The target of data set [2] is T1, His-DEK. Kind of data set: EMSA; LightShift Chemiluminescent EMSA Kit (Pierce), per manufacturer; buffer, salt, pH and temperature not stated. To be noted: protein: recombinant; tags: His; label: biotin; blunt.

B1: DRE1 (dsDNA)
DNA 1: GGGTTGAGGGCGTTGGAGCGGGGAGAAGGCCAGGGGT
DNA 2: ACCCCTGGCCTTCTCCCCGCTCCAACGCCCTCAACCC
With B1, the binding result with His-DEK [1] was “binds”.

B2: DRE1-M (dsDNA)
DNA 1: GGGTTGAGGGCGGGTTCTATTTGAGAAGGCCAGGGGT
DNA 2: ACCCCTGGCCTTCTCAAATAGAACCCGCCCTCAACCC
B2: the binding result in the data set with His-DEK [2] is “no binding”.

B3: DRE2 (dsDNA)
DNA 1: TGGAAAGGGAGGGTTGGGGTGGGTGGGAGCCAGCCCT
DNA 2: AGGGCTGGCTCCCACCCACCCCAACCCTCCCTTTCCA
B3: the binding result in the data set with His-DEK [2] is recorded as “no binding”.

B4: HRE (dsDNA)
DNA 1: ACAGTGCATACGTGGGCTCCAACAGGTCCTCTTCCCTCCC
DNA 2: GGGAGGGAAGAGGACCTGTTGGAGCCCACGTATGCACTGT
On to B4, for which, in the data set with His-DEK [2], the binding result is “no binding”.
